B1: antibody 348 (antibody, V domains shown)
VH: QVQLVQSGSELKKPGASVKVSCKASGYTFTSYAMNWVRQAPGQGLEWMGWINTNTGNPTYAQGFTGRFVFSLDTSVSTAYLQISSLKAEDTAVYYCARDHELPNTSSWFGHFEYWGQGTLVTVSS
VL: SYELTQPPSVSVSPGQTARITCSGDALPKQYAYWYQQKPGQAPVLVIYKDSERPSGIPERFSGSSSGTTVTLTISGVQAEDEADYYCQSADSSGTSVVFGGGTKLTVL
B2: anti-SARS-CoV-2 antibody 1135 (antibody, V domains shown)
VH: EVQLVESGGGLVQPGRSLRLSCAASGLTFEDYAMHWVRQVPGKGLEWVSGISWNSGTIGYADSVKGRFIISRDNAKNSLYLQMRSLRAEDTALYYCAKDVGFGELLYYAFDIWGQGTMVTVSS
VL: QSALTQPASVSGSPGQSITISCTGTSSDVGGYNYVSWYQQHPGKAPKLMIYDVSNRPSGVSNRFSGSKSGNTASLTISGLQAEDEADYYCSSYTSSSTVVFGGGTKLTVLG
B3: antibody 345 (antibody, V domains shown)
VH: QVQLQESGPGLVKPSQTLSLTCTVSGGSISSGDYYWSWIRQPPGKGLEWIGYIYYSGSTYYNPSLKSRVTISVDTSKNQFSLKLSSVTAADTAVYYCARVGMVDNWNFEGNWFDPWGQGTLVTVSS
VL: QSALTQPRSVSGSPGQSVTISCTGTSSDVGGYNYVSWYQQHPGKAPKLMIYDVSKRPSGVPDRFSGSKSGNTASLTISGLQAEDEADYYCCSYAGSVVFGGGTKLTVL
B4: anti-SARS-CoV-2 antibody 1139 (antibody, V domains shown)
VH: QVQLVQSGAEVKKPGASVKVSCKASGYTFSSYEINWVRQATGQGLEWMGRMTLNSGNTGYAQNFQGRVTMTRDTSISTAYMELSGLRSEDTAVYYCARMRSGWPTHGRPDDYWGQGTLVTVSS
VL: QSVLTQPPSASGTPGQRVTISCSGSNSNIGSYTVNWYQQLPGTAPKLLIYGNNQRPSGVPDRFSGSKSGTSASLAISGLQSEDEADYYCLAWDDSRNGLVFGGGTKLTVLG
B5: antibody 343 (antibody, V domains shown)
VH: QVQLVESGGDVVQPGTSLRLSCAASGFTFNNYGFHWVRQAPGKGLEWVALISSDGASTHYADSVKGRFTISRDSSVNTLYLQMNSLSLEDTAVYYCATGHCGTTCYYFDYWGQGTLVSVSS
VL: DIQVTQSPSYLSASVGDRVTITCRASQTISTFLQWYQQKVGKAPKLLIYAASTLQSGVPSRFSGSGSGTDFSLTISSLQPEDFATYYCQQSYSAPLSFGGGTKVEIK
B6: antibody 344 (antibody, V domains shown)
VH: QVQLVESGGGVVQPGRSLRLSCAASGFTFSSYAMHWVRQAPGKGLEWMAVISYDGSNKYYADSVKGRFTISRDNSKNTLYLQMNSLRAEDTAVYFCAKGYSGSYYEPFDYWGQGTLVTVSS
VL: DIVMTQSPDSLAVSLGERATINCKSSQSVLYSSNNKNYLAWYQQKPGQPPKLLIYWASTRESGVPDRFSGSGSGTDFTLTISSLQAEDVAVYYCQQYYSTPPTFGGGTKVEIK
B7: anti-SARS-CoV-2 antibody 1036 (antibody, V domains shown)
VH: QVQLVQSGAEVKKPGSSVKVSCKASGGTLSSYTISWVRQAPGQGLEWMGRIIPILGIADYAQKFQGRVTITADKSTTTAYMDLSSLGSEDTALYYCASAPKDWSSGFDYYYGMDVWGQGTMVTVSS
VL: DIVMTQTPLSLSVTPGQPASISCKSSQSLLNSDGKTYLYWYLQKAGQPPQLLIYEVSNRFSGVPERFSGSGSGTDFTLKISRVEAEDVGVYYCMQSVQLPPYTFGQGTKLEITR
B8: antibody 340 (antibody, V domains shown)
VH: QVQLVQSGAEVKKPGASVKVSCKASGYTFTSYDINWVRQATGQGLEWMGWMNPNSGNTGYAQKFQGRVTMTRNTSISTAYMELSSLRSEDTAVYYCARGRYCTGGVCWGDWYFDLWGRGTLVTVSS
VL: QSVLTQPPSVSGAPGQRVTISCTGSSSNIGAGYDVHWYQQLPGTAPKFLIYGNSNRPSGVPDRFSGSKSGTSASLAITGLQAEDEADYYCQSYDSSLSGPVFGGGTKLTVL
B9: anti-SARS-CoV-2 antibody 936 (antibody, V domains shown)
VH: EVQLVESGGGLVQPGRSLTLSCAGSGFTFDDYAMHWVRQAPGKGLEWVSGISWNSGSIGYADSVKGRFTISRDNAKNSLYLQMNSLRAEDTALYYCAKDVSYDSSGYYNNAFDIWGQGTMVTVSS
VL: DIQLTQSPSFLSASVGDRVTITCRASQGISSYLAWYQQKPGKAPKLLIYAASTLQSGVPSRFSGSGSGTEFTLTISSLQPEDFATYYCQQLYSYPVTFGQGTRLEIKR
B10: anti-SARS-CoV-2 antibody 1149 (antibody, V domains shown)
VH: QVQLVQSGAEVKKPGASVKVSCKASGYTFASYDINWVRQATGQGPEWMGWMIPNIGNTGYAQKFQGRVTMTRNTSISTAYMELSSLTSEDTAVYYCARVSRLFNDFGLRHEAPVDFWGQGTRVTVSS
VL: QSVLTQPPSVSGAPGQRVTISCTGSSSNIGAGYDVHWYQQLPGTAPKLLIYGYSSRPSGVPDRFSGSKSGTSASLAITGLQAEDEADYYCQSYDSSLSVLFGGGTKLTVLG
B11: antibody 363 (antibody, V domains shown)
VH: EVQLLESGGGLVQPGGSLRLSCAASGFTFSTYAMSWVRQAPGKGLEWVSAISGSGGSTYYADSVKGRFTISRDNSKNTLYLQMNSLRAEDTAVYYCASGYSPDYWGQGTLVTVSS
VL: not shown

Assays:
[1] = target: SARS-CoV-2 full length Spike protein, wild type (SARS-CoV-2, UniProt P0DTC2 14-1208)
[2] = target: SARS-CoV-2 full length Spike protein, wild type, expressed on CHO cells (SARS-CoV-2, UniProt P0DTC2 14-1273)

| Binder | bead binding signal (fold over isotype) [1] | median fluorescence intensity, fold over isotype control [2] |
| --- | --- | --- |
| B1 | 869 fold over isotype | – |
| B2 | – | 10.9 fold over isotype |
| B3 | 562 fold over isotype | – |
| B4 | – | 20.3 fold over isotype |
| B5 | 1.2 fold over isotype | – |
| B6 | 404 fold over isotype | – |
| B7 | – | 10.2 fold over isotype |
| B8 | 547 fold over isotype | – |
| B9 | – | 33.1 fold over isotype |
| B10 | – | 19.2 fold over isotype |
| B11 | 1030 fold over isotype | – |

— patent US20220356229A1 (published 2022)
